From patent publication US20210292393A1 (published 2021)

Key:
[1] = target: SARS-CoV-2 full length spike protein, wild type, expressed on the surface of transiently transfected CHO cells (SARS-CoV-2, UniProt P0DTC2 14-1273)
[2] = target: SARS-CoV-2 spike (S) protein, full length, wild type (SARS-CoV-2, UniProt P0DTC2 14-1208)
[3] = target: SARS-CoV-2 full length spike (S) protein, wild type, expressed on the surface of CHO cells (SARS-CoV-2, UniProt P0DTC2 14-1273)

| Binder | median fluorescence fold over isotype [2] | median fluorescence intensity, fold over isotype control [3] | other results |
| --- | --- | --- | --- |
| antibody 420 (antibody, V domains shown) VH: QVQLVESGGGVVQPGRSLRLSCAASGFTFSSYGMHWVRQAPGKGLEWVAVIWYDGSNKYYADSVKGRFTISRDNSKNTLYLQMNSLRAEDTAVYYCAKDGGDYGDVNFDYWGQGTLVTVSS VL: SYELTQPPSVSVSPGQTARITCSGDALPKQYAYWYQQKPGQAPVLVIYKDSERPSGIPERFSGSSSGTTVTLTISGVQAEDEADYYCQSAGSSGNYKVFGGGTKLTVL | – | – | median fluorescence fold over isotype control [1]: 1.99 fold over isotype |
| anti-SARS-CoV-2 antibody 476 (antibody, V domains shown) VH: QVQLVQSGSELKKPGASVKVSCKASGYTFTSYAMNWVRQAPGQGLEWMGWINTNTGNPTYAQGFTGRFVFSLDTSVSTAYLQISSLKAEDTGVYYCARDHELPNSSSWFGHFEYWGQGTLVTVSS VL: SYELTQPPSVSVSPGQTARITCSGDALPKQYAYWYQQKAGQAPVLVIYKDSERRSGIPERFSGSSSGTTVTLTISGVQAEDEADYYCQSADSSGTSVVFGGGTKLTVL | 902 fold over isotype | – | – |
| antibody 560 (antibody, V domains shown) VH: EVQLVESGGGLVQPGGSLRLSCAASGFTISSNYMSWVRQAPGKGLEWVSVIYSGGSTYYADSVKGRFTISRDNSKNTLYLQMNSLRAEDTAVYYCAREEGEWEKDYYGMDVWGQGTTVTVSS VL: not shown | – | 22.8 fold over isotype | – |
| anti-SARS-CoV-2 antibody 496 (antibody, V domains shown) VH: QVQLVQSGAEVKKPGASVKVSCKASGYTFTDYYIHWVRQAPGQGLEWMGWINPNSGGTNYAQKFQGRLTMTRDTSISTAYMELSRLRSDDTAVYYCARVYSMFREFIINPYYYYYGLDVWGQGTTVTVSS VL: QSALTQPASVSGSPRQSITISCTGTSSDVGSYNLVSWYQQHPGKAPKLMIYEGSKRPSGVSNRFSGSKSGNTASLAISGLQAEDEANYYCCSYAGSSTLVFGGGTKLTVL | 1090 fold over isotype | – | – |
| antibody 421 (antibody, V domains shown) VH: QVQLVESGGGVVQPGRSLRLSCAASGFTFSTYAMHWVRQAPGKGLEWVAVISYDGSNKYYADSVKGRFTISRDNSKNTLYLQMNSLRAEDTAVYYCARGYGSGSYYPLYLYWGQGTLVTVSS VL: not shown | – | – | median fluorescence fold over isotype control [1]: 9.23 fold over isotype |
| antibody 566 (antibody, V domains shown) VH: QVQLVQSGAEVKKPGASVKVSCKASGYTFTSYAMHWVRQAPGQRLEWMGWINAGNGNTKYSQKFQGRVTITRDTSASTAYMELSSLRSEDTAVYYCARDLGVAVTLHPADFDYWGQGTLVTVSS VL: QSVLTQPPSVSGAPGQRVTISCTGSSSNIGAGYDVHWYQQLPGTAPKLLIYDNSNRPSGVPDRFSGSKSGTSASLAITGLQAEDEADYYCQSYDSSLSAVVFGGGTKLTVL | – | 31.5 fold over isotype | – |
| anti-SARS-CoV-2 antibody 475 (antibody, V domains shown) VH: QVQLVESGGGVVQPGRSLRLSCAASGFTFSSYAMHWVRQAPGKGLEWVTFISHEGSNKYYADSVKGRFTISRDNSKNTLYLQMNSLRAEDTAVYYCARTFEYSSSSATGDFDYWGQGTLVTVSS VL: QSVLTQPPSVSGAPGQRVTISCTGSSSNIGAGYDVHWYQQLPGTAPKLLIYGNSNRPSGVPDRFSGSKSGTSASLAITGLQAEDEADYYCQSYDSSLSGVVFGGGTKLTVL | 683 fold over isotype | – | – |
| antibody 565 (antibody, V domains shown) VH: EVQLVESGGGLVQPGGSLRLSCTASGFTLSDHYMDWVRQAPGKGLEWVARTRNKVNSYSTEYAASVKGRFSMSRDDSKNSLYLQMTRLQTDDTAVYYCARSLMILGARGASDYWGQGTLVTVSS VL: DIQMTQSPSTLSASAGDRVTITCRASQNIDSWLAWYQQHPGKAPNLLIYKASFLQSGVPSRFSGSGSGTEFTLTISSLQPDDFATYYCQQYNSYPVTFGQGTRLEIK | – | 1.11 fold over isotype | – |
| antibody 564 (antibody, V domains shown) VH: QVHLVESGGGVVQPGKSLRLSCAASGFIFSSFGMHWVRQPPGKGLEWLAVVSYDGSVTKYSDSFEGRFTISRDNSKNTLYLQMDSLRPEDTAVYYCAKGQGTNLLHYWGQGILVTVSS VL: DVVLSQSPLSLPVTLGQPASISCRSSESLVYTDGDTYLHWFHQRPGQSPRRLIFKVSHRESGVPDRISGSGSGTDFTLKISRVEAEDVGVYYCMQGTHWPFTFGPGTKVDIK | – | 10.8 fold over isotype | – |
| anti-SARS-CoV-2 antibody 456 (antibody, V domains shown) VH: QVQLQQWGAGLLKPSETLSLTCAVYGGSFSGYYWSWIRQPPGKGLEWIGEINHSGSTNYNPSLKSRVTISVDTSKNQFSLKLSSVTAADTAVYYCARDGSGSYYLSYYFDYWGQGTLVTVSS VL: not shown | 595 fold over isotype | – | – |
| antibody 571 (antibody, V domains shown) VH: EVQLVESGGGLVQPGGSLRLSCAASGFTFSTYWMTWVRQAPGKGLEWVANIKHDGSGKYHVDSVKGRFTISRDNAKNSLYLQMNSLRAEDTAVYYCTRDEGGWYDYWGQGTLVTVSS VL: QSALTQPASVSGSPGQSITISCTGTSSDVGSYNPVSWYQQHPGKAPKVMIYEGSKRPSGVSNRFSGSKSGNTASLTISGLQAEDEADYYCCSYARSSTFVVFGGGTKLTVL | – | 8.3 fold over isotype | – |
| antibody 405 (antibody, V domains shown) VH: not shown VL: QSALTQPRSVSGSPGQSVTISCTGTSSDVGGYNYVSWYQQHPGKAPKLMIYDVSKRPSGVPDRFSGSKSGNTASLTISGLQAEDEADYYCCSYAGSYNVVFGGGTKLTVL | – | – | median fluorescence fold over isotype control [1]: 9.7 fold over isotype |
| anti-SARS-CoV-2 antibody 470 (antibody, V domains shown) VH: not shown VL: QSALTQPASVSGSPGQSITISCTGTSSDVGSYNLVSWYQQHPGKAPKLMIYEVSKRPSGVSNRFSGSKSGNTASLTISGLQAEDEADYYCCSYAGSSTLVFGGGTKLTVL | 1180 fold over isotype | – | – |
| antibody 395 (antibody, V domains shown) VH: QVQLVQSGSELKKPGASVKLSCQASGYTFSNHAMNWVRQAPGQGLEWMGWINTNTGNPTYAQGFTGRFVFSLDTSVGTAYLHISSLKAEDTAFYYCARASARPGVATNLDFWGQGTLVVVSS VL: DIQMTQSPSSLSASVGDRVTITCRTSQNIDNYLNWYQQKPGKAPNLLIYAASRLHSGVPSRFSGSGSGTDFTLIISSLQPEDLATYYCQQSYSNPLTFGPGTKVDIR | – | – | median fluorescence fold over isotype control [1]: 7.8 fold over isotype |
| antibody 409 (antibody, V domains shown) VH: QVTLRESGPALVKPTQTLTLTCTFSGFSLSTSGMCVSWIRQPPGKALEWLALIDWDDDKYYSTSLKTRLTISKDTSKNQVVLTMTNMDPVDTATYYCARTTYYYVSGRRAEFDPWGQGTLVTVSS VL: NFMLTQPHSVSESPGKTVTISCTGSSGSIASNYVQWYQQRPGSAPTTVIYEDNQRPSGVPDRFSGSIDSSSNSASLTISGLKTEDEADYYCQSYDSSNQGVFGGGTKLTVL | – | – | median fluorescence fold over isotype control [1]: 13.8 fold over isotype |
| anti-SARS-CoV-2 antibody 477 (antibody, V domains shown) VH: QVQLVESGGGVVQPGRSLRLSCAASGITFSSYAMHWVRQAPGKGLEWVAVISYDGSDKYHADSVKGRFAISRDNSKNTLYLQMNSLRAEDTAVYYCAKDKGIAVAGTGWIRPDPEYYFDYWGQGTLVTVSS VL: not shown | 847 fold over isotype | – | – |
| anti-SARS-CoV-2 antibody 497 (antibody, V domains shown) VH: QVQLQESGPGLVKPSQTLSLTCTVSGGSINSFGYYWSWIRQHPGKGLEWIGYIYYSGSTDYNPSLNSRVTISLDTSKNQFLLKLTSVTAADTAVYYCAKLTDYYDSSGYSFDYWGQGTLVTVSS VL: DIQMTQSPSSVSASVGDRVTITCRASQDISRWLAWYQQKPGKAPKLLIYAASSLQSGVPSRFSGRGSGTELTLTISSLQPEDFATYFCQQAYSFPFTFGGGTKVEIK | 630 fold over isotype | – | – |
| antibody 385 (antibody, V domains shown) VH: QVQLVESGGGVVQPGRSLRLSCAASGFTFSSYAIHWVRQAPGKGLEWVAVISYDGSNKYYADSVKGRFTISRDNSKNTLYLQMNSLRAEDTAVYYCARPRSGSYWGAFDIWGQGTMVTVSS VL: QSVLTQPPSVSGAPGQRVTISCTGSSSNIGARYDVHWYQQLPGTAPKLLIYGNSNRPSGVPDRFSGSKSGTSASLAITGLQAEDEADYYCQSYDSSLRGVFGGGTKLTVL | – | – | median fluorescence fold over isotype control [1]: 10.5 fold over isotype |
| antibody 569 (antibody, V domains shown) VH: QVQLVESGGGVVQPGRSLRLSCAASGFTFSSYAMHWVRQAPGKGLEWVAVISYDGSNKYYADSVKGRFTISRDNSKNTLYLQMNSLRAEDTAVYYCARASSGGYQGPFDPWGQGTLVTVSS VL: EIVLTQSPATLSLSPGERATLSCRASQSVSSYLAWYQQKPGQAPRLLIYDASNRATGIPARFSGSGSGTDFTLTISSLEPEDFAVYYCQQRSSPFGPGTKVDIK | – | 8.78 fold over isotype | – |
| anti-SARS-CoV-2 antibody 492 (antibody, V domains shown) VH: QVQLVESGGGVVQPGRSLRLSCAASGFTFSSYGMHWVRQAPGKGLEWVAVISYDGSNKYYADSVKGRFTISRDNSKNTLYLQMNSLRAEDTAVYYCAKDGILWWWWGYFDYWGQGTLVTVSS VL: QSVLTQPPSVSGAPGQRVTISCTGSSSNIGAGFDVHWYQQLPGTAPKLLIYGNSNRPSGVPDRFSGSKSGTSASLAITGLQAEDEADYYCQSYDSSLSVVFGGGTKLTVL | 664 fold over isotype | – | – |
| anti-SARS-CoV-2 antibody 480 (antibody, V domains shown) VH: QVQLVESGGGVVQPGRSLRLSCAASGFTFSSYAMHWVRQAPGKGLEWVAVISYDGNNKYYADSVKGRFTISRDNSKNTLYLQMNSLRAEDTAVYYCVRTNSGSYYAAFDYWGQGTLVTVSS VL: not shown | 690 fold over isotype | – | – |
| antibody 563 (antibody, V domains shown) VH: QVQLVESGGGVVQPGRSLRLSCAASGFTFSSYAMHWVRQAPGKGLEWVAVISDDGSNKYYADSVKGRFTISRDNSKNTLYLQMNSLRAEDTAVYYCARDIVATIRRLFDYWGQGTLVTVSS VL: not shown | – | 9.67 fold over isotype | – |
| anti-SARS-CoV-2 antibody 471 (antibody, V domains shown) VH: QVQLVESGGGVVQPGRSLRLSCAASGFTFSSYAMHWVRQAPGKGLEWVAVISYDGSNKYYADSVKGRFTISRDNSKNTLYLQMNSLRAEDTAVYYCAKQYSPYCSGGSCYSGASDYWGQGTLVTVSS VL: not shown | 770 fold over isotype | – | – |
